What is called EC50 is the concentration that produces a half-maximal response. A low value points to an effect from little substance.

Experimental findings from patent publication US20220306758A1 (Regeneron, published 2022) are described below.

Where a chain is given by its changes, count along the chain named.

Test [1] has as its target T1, human BCMA on cells (endogenous, on multiple myeloma and lymphoma cell lines) (human, UniProt Q02223 1-184).
T1 sequence: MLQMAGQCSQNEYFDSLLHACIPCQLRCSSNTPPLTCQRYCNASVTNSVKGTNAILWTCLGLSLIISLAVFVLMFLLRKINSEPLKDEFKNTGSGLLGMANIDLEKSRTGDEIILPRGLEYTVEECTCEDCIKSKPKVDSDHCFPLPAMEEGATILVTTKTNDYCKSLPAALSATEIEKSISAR
Briefly: cell-based or functional assay.

Test [2] concerns the target T1, human BCMA on cells (endogenous, on …). Briefly: flow cytometry on MM.1S cells, Alexa647 conjugate. On the procedure: (§1) Cells were then washed and fixed for 25 mins at 4° C. using a 50% solution of BD Cytofix (BD, Cat #554655) diluted in PBS. […] After gating for live cells and single cells, the mean fluorescent intensity (MFI) was determined, and MFI values were plotted in Graphpad Prism using a four-parameter logistic equation over a 10-point response curve to calculate EC₅₀s. The zero condition for each dose-response curve is also included in the analysis as a continuation of the two-fold serial dilution and is represented as the lowest dose. The signal to noise (S/N) is determined by taking the ratio of the mAb25442D-A647 MFI to the Isotype-A647 MFI. (Table 13). The mAb25442D-A647 S/N ranged from 2 to 470 and the EC₅₀ values ranged from 27 to 83 nM. No detectable binding was observed on HEK293 cells.
For orientation: In flow cytometry, cells or beads pass a laser one at a time.

Test [3] shares this target. The test can be described thus: flow cytometry on OPM-2 cells, Alexa647 conjugate. On the procedure: as §1
Test [4] has the same target. Briefly: flow cytometry on NCI-H929 cells, Alexa647 conjugate. The method, then: as §1
The target is the same in test [5]. Briefly: flow cytometry on RPMI-8226 cells, Alexa647 conjugate. On the procedure: as §1

B1: REGN5458 (bsAb25441D), anti-BCMA x anti-CD3 bispecific antibody (bispecific antibody, V domains shown)
VH 1: EVQLVESGGGLVQPGGSLRLSCAASGFTFSNFWMTWVRQAPGKGLEWVANMNQDGSEKYYVDSVKGRFTISRDNAKSSLYLQMNSLRAEDTAVYYCARDREYCISTSCYDDFDYWGQGTLVTVSS
VH 2: EVQLVESGGGLVQPGRSLRLSCAASGFTFDDYSMHWVRQAPGKGLEWVSGISWNSGSKGYADSVKGRFTISRDNAKNSLYLQMNSLRAEDTALYYCAKYGSGYGKFYHYGLDVWGQGTTVTVSS
VL: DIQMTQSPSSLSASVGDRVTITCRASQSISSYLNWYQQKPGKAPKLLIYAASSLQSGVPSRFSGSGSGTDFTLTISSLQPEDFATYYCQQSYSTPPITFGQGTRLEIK
notes: Two different heavy chains paired with a common light chain; human Fc (captured by anti-human Fc in SPR); also called bsAb25441D9; mAb25441D
As for B1, in test [1], the “MFI fold change over cells incubated in media only, NCI-H929, 18 h with 67 nM antibody, then stained with the same antibody” value stood at 2 fold and the “MFI fold change over cells incubated in media only, NCI-H929, 18 h with 667 nM antibody, then stained with the same antibody” value was 3 fold.

B2: REGN5459 (bsAb25442D), anti-BCMA x anti-CD3 bispecific antibody (bispecific antibody, V domains shown)
VH 1: B1 VH 1
VH 2: B1 VH 2 with K58I, H108Y, L111M
VL: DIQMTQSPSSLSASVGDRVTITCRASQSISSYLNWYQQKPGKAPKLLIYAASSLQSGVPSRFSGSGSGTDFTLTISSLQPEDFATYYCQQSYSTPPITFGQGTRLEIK
notes: also called mAb25442D; mAb25442D-A647
Regarding B2, the EC50 in test [2] is 83 nM; in test [3], 57 nM; in test [4], 79 nM; in test [5], 27 nM.
